Measured values published in patent publication US11898181B2, “Genetically modified isopropylmalate isomerase enzyme complexes and processes to prepare elongated 2-ketoacids and C5-C10 compounds therewith” (Dow Global Technologies LLC, priority 2017, dated 2022).

What was measured:
Assay type in all cases: biochemical, E. coli
[1] = substrate: CCCCC(O)(CC(=O)O)C(=O)O; experiment: Kinetic analysis of LeuCD (LeuB-coupled HTP assay), Variant 6; conditions: other: 2-BM 0-5 mM, pH 8, room temperature, 30 min
[2] = substrate: CCCCCCC(O)(CC(=O)O)C(=O)O; experiment: as above; conditions: other: 2-HM 0-1.6 mM, pH 8, room temperature, 30 min
[3] = substrate: CCCCC(O)(CC(=O)O)C(=O)O; experiment: Kinetic analysis of LeuCD (LeuB-coupled HTP assay), Variant 9; conditions: other: 2-BM 0-5 mM, pH 8, room temperature, 30 min
[4] = substrate: CCCCCCC(O)(CC(=O)O)C(=O)O; experiment: as above; conditions: other: 2-HM 0-1.6 mM, pH 8, room temperature, 30 min
[5] = substrate: CCCCC(O)(CC(=O)O)C(=O)O; experiment: Kinetic analysis of LeuCD (LeuB-coupled HTP assay), Variant 59; conditions: other: 2-BM 0-5 mM, pH 8, room temperature, 30 min
[6] = substrate: CCCCCCC(O)(CC(=O)O)C(=O)O; experiment: as above; conditions: other: 2-HM 0-1.6 mM, pH 8, room temperature, 30 min
[7] = substrate: CCCCC(O)(CC(=O)O)C(=O)O; experiment: Kinetic analysis of LeuCD (LeuB-coupled HTP assay), Variant 61; conditions: other: 2-BM 0-5 mM, pH 8, room temperature, 30 min
[8] = substrate: CCCCCCC(O)(CC(=O)O)C(=O)O; experiment: as above; conditions: other: 2-HM 0-1.6 mM, pH 8, room temperature, 30 min
[9] = substrate: CCCCC(O)(CC(=O)O)C(=O)O; experiment: Kinetic analysis of LeuCD (LeuB-coupled HTP assay), Variant 1; conditions: other: 2-BM 0-5 mM, pH 8, room temperature, 30 min
[10] = substrate: CCCCCCC(O)(CC(=O)O)C(=O)O; experiment: as above; conditions: other: 2-HM 0-1.6 mM, pH 8, room temperature, 30 min
[11] = substrate: CCCCC(O)(CC(=O)O)C(=O)O; experiment: Kinetic analysis of LeuCD (LeuB-coupled HTP assay), Variant 5; conditions: other: 2-BM 0-5 mM, pH 8, room temperature, 30 min
[12] = substrate: CCCCCCC(O)(CC(=O)O)C(=O)O; experiment: as above; conditions: other: 2-HM 0-1.6 mM, pH 8, room temperature, 30 min

B1: E. coli isopropylmalate isomerase LeuCD complex, Variant 6 (wt LeuC + L31G-LeuD; parents SEQ ID NO: 1 and SEQ ID NO: 2) (Escherichia coli K-12; L31G) (protein)
chain 1: MGSSHHHHHHSSGMAKTLYEKLFDAHVVYEAENETPLLYIDRHLVHEVTSPQAFDGLRAHGRPVRQPGKTFATMDHNVSTQTKDINACGEMARIQMQELIKNCKEFGVELYDLNHPYQGIVHVMGPEQGVTLPGMTIVCGDSHTATHGAFGALAFGIGTSEVEHVLATQTLKQGRAKTMKIEVQGKAAPGITAKDIVLAIIGKTGSAGGTGHVVEFCGEAIRDLSMEGRMTLCNMAIEMGAKAGLVAPDETTFNYVKGRLHAPKGKDFDDAVAYWKTLQTDEGATFDTVVTLQAEEISPQVTWGTNPGQVISVNDNIPDPASFADPVERASAEKALAYMGLKPGIPLTEVAIDKVFIGSCTNSRIEDLRAAAEIAKGRKVAPGVQALVVPGSGPVKAQAEAEGLDKIFIEAGFEWRLPGCSMCLAMNNDRLNPGERCASTSNRNFEGRQGRGGRTHLVSPAMAAAAAVTGHFADIRNIK
chain 2: MAEKFIKHTGLVVPLDAANVDTDAIIPKQFGQKVTRTGFGAHLFNDWRFLDEKGQQPNPDFVLNFPQYQGASILLARENFGCGSSREHAPWALTDYGFKVVIAPSFADIFYGNSFNNQLLPVKLSDAEVDELFALVKANPGIHFDVDLEAQEVKAGEKTYRFTIDAFRRHCMMNGLDSIGLTLQHDDAIAAYEAKQPAFMN
notes: expression of a His-tagged LeuC having 13 additional amino acids on the N-terminus; made in house; host or cells: E. coli BL21(DE3), whole cell lysate
Km [1]: 8440 ± 2400 µM | kcat [1]: 0.132 ± 0.0333 s⁻¹ | kcat/Km [1]: 17.2 ± 6.67 M⁻¹ s⁻¹ | Km [2]: 650 ± 40 µM | kcat [2]: 0.3436 ± 0.00944 s⁻¹ | kcat/Km [2]: 532.5 ± 35.8 M⁻¹ s⁻¹

B2: E. coli isopropylmalate isomerase LeuCD complex, Variant 9 (V35A-LeuC + L31G-LeuD; parents SEQ ID NO: 1 and SEQ ID NO: 2) (Escherichia coli K-12; L31G/V35A) (protein)
chain 1: MGSSHHHHHHSSGMAKTLYEKLFDAHVVYEAENETPLLYIDRHLVHEATSPQAFDGLRAHGRPVRQPGKTFATMDHNVSTQTKDINACGEMARIQMQELIKNCKEFGVELYDLNHPYQGIVHVMGPEQGVTLPGMTIVCGDSHTATHGAFGALAFGIGTSEVEHVLATQTLKQGRAKTMKIEVQGKAAPGITAKDIVLAIIGKTGSAGGTGHVVEFCGEAIRDLSMEGRMTLCNMAIEMGAKAGLVAPDETTFNYVKGRLHAPKGKDFDDAVAYWKTLQTDEGATFDTVVTLQAEEISPQVTWGTNPGQVISVNDNIPDPASFADPVERASAEKALAYMGLKPGIPLTEVAIDKVFIGSCTNSRIEDLRAAAEIAKGRKVAPGVQALVVPGSGPVKAQAEAEGLDKIFIEAGFEWRLPGCSMCLAMNNDRLNPGERCASTSNRNFEGRQGRGGRTHLVSPAMAAAAAVTGHFADIRNIK
chain 2: MAEKFIKHTGLVVPLDAANVDTDAIIPKQFGQKVTRTGFGAHLFNDWRFLDEKGQQPNPDFVLNFPQYQGASILLARENFGCGSSREHAPWALTDYGFKVVIAPSFADIFYGNSFNNQLLPVKLSDAEVDELFALVKANPGIHFDVDLEAQEVKAGEKTYRFTIDAFRRHCMMNGLDSIGLTLQHDDAIAAYEAKQPAFMN
notes: as for B1
kcat/Km [3]: 0.56 ± 0 M⁻¹ s⁻¹ | Km [4]: 600 ± 34 µM | kcat [4]: 0.0461 ± 0.0014 s⁻¹ | kcat/Km [4]: 78.6 ± 5 M⁻¹ s⁻¹

B3: E. coli isopropylmalate isomerase LeuCD complex, Variant 59 (wt LeuC + L31V/H88A-LeuD; parents SEQ ID NO: 1 and SEQ ID NO: 2) (Escherichia coli K-12; H88A/L31V) (protein)
chain 1: MGSSHHHHHHSSGMAKTLYEKLFDAHVVYEAENETPLLYIDRHLVHEVTSPQAFDGLRAHGRPVRQPGKTFATMDHNVSTQTKDINACGEMARIQMQELIKNCKEFGVELYDLNHPYQGIVHVMGPEQGVTLPGMTIVCGDSHTATHGAFGALAFGIGTSEVEHVLATQTLKQGRAKTMKIEVQGKAAPGITAKDIVLAIIGKTGSAGGTGHVVEFCGEAIRDLSMEGRMTLCNMAIEMGAKAGLVAPDETTFNYVKGRLHAPKGKDFDDAVAYWKTLQTDEGATFDTVVTLQAEEISPQVTWGTNPGQVISVNDNIPDPASFADPVERASAEKALAYMGLKPGIPLTEVAIDKVFIGSCTNSRIEDLRAAAEIAKGRKVAPGVQALVVPGSGPVKAQAEAEGLDKIFIEAGFEWRLPGCSMCLAMNNDRLNPGERCASTSNRNFEGRQGRGGRTHLVSPAMAAAAAVTGHFADIRNIK
chain 2: MAEKFIKHTGLVVPLDAANVDTDAIIPKQFVQKVTRTGFGAHLFNDWRFLDEKGQQPNPDFVLNFPQYQGASILLARENFGCGSSREAAPWALTDYGFKVVIAPSFADIFYGNSFNNQLLPVKLSDAEVDELFALVKANPGIHFDVDLEAQEVKAGEKTYRFTIDAFRRHCMMNGLDSIGLTLQHDDAIAAYEAKQPAFMN
notes: as for B1
Km [5]: 2700 ± 400 µM | kcat [5]: 0.0606 ± 0.00611 s⁻¹ | kcat/Km [5]: 23.1 ± 3.89 M⁻¹ s⁻¹ | Km [6]: 3800 ± 900 µM | kcat [6]: 0.0506 ± 0.0103 s⁻¹ | kcat/Km [6]: 13.9 ± 4.44 M⁻¹ s⁻¹

B4: E. coli isopropylmalate isomerase LeuCD complex, Variant 61 (wt LeuC + L31G/H88A-LeuD; parents SEQ ID NO: 1 and SEQ ID NO: 2) (Escherichia coli K-12; H88A/L31G) (protein)
chain 1: MGSSHHHHHHSSGMAKTLYEKLFDAHVVYEAENETPLLYIDRHLVHEVTSPQAFDGLRAHGRPVRQPGKTFATMDHNVSTQTKDINACGEMARIQMQELIKNCKEFGVELYDLNHPYQGIVHVMGPEQGVTLPGMTIVCGDSHTATHGAFGALAFGIGTSEVEHVLATQTLKQGRAKTMKIEVQGKAAPGITAKDIVLAIIGKTGSAGGTGHVVEFCGEAIRDLSMEGRMTLCNMAIEMGAKAGLVAPDETTFNYVKGRLHAPKGKDFDDAVAYWKTLQTDEGATFDTVVTLQAEEISPQVTWGTNPGQVISVNDNIPDPASFADPVERASAEKALAYMGLKPGIPLTEVAIDKVFIGSCTNSRIEDLRAAAEIAKGRKVAPGVQALVVPGSGPVKAQAEAEGLDKIFIEAGFEWRLPGCSMCLAMNNDRLNPGERCASTSNRNFEGRQGRGGRTHLVSPAMAAAAAVTGHFADIRNIK
chain 2: MAEKFIKHTGLVVPLDAANVDTDAIIPKQFGQKVTRTGFGAHLFNDWRFLDEKGQQPNPDFVLNFPQYQGASILLARENFGCGSSREAAPWALTDYGFKVVIAPSFADIFYGNSFNNQLLPVKLSDAEVDELFALVKANPGIHFDVDLEAQEVKAGEKTYRFTIDAFRRHCMMNGLDSIGLTLQHDDAIAAYEAKQPAFMN
notes: as for B1
kcat/Km [7]: 0.278 ± 0 M⁻¹ s⁻¹ | kcat/Km [8]: 6.11 ± 0.56 M⁻¹ s⁻¹

B5: E. coli isopropylmalate isomerase LeuCD complex, Variant 1 (V35A-LeuC + wt LeuD; parents SEQ ID NO: 1 and SEQ ID NO: 2) (Escherichia coli K-12; V35A) (protein)
chain 1: MGSSHHHHHHSSGMAKTLYEKLFDAHVVYEAENETPLLYIDRHLVHEATSPQAFDGLRAHGRPVRQPGKTFATMDHNVSTQTKDINACGEMARIQMQELIKNCKEFGVELYDLNHPYQGIVHVMGPEQGVTLPGMTIVCGDSHTATHGAFGALAFGIGTSEVEHVLATQTLKQGRAKTMKIEVQGKAAPGITAKDIVLAIIGKTGSAGGTGHVVEFCGEAIRDLSMEGRMTLCNMAIEMGAKAGLVAPDETTFNYVKGRLHAPKGKDFDDAVAYWKTLQTDEGATFDTVVTLQAEEISPQVTWGTNPGQVISVNDNIPDPASFADPVERASAEKALAYMGLKPGIPLTEVAIDKVFIGSCTNSRIEDLRAAAEIAKGRKVAPGVQALVVPGSGPVKAQAEAEGLDKIFIEAGFEWRLPGCSMCLAMNNDRLNPGERCASTSNRNFEGRQGRGGRTHLVSPAMAAAAAVTGHFADIRNIK
chain 2: MAEKFIKHTGLVVPLDAANVDTDAIIPKQFLQKVTRTGFGAHLFNDWRFLDEKGQQPNPDFVLNFPQYQGASILLARENFGCGSSREHAPWALTDYGFKVVIAPSFADIFYGNSFNNQLLPVKLSDAEVDELFALVKANPGIHFDVDLEAQEVKAGEKTYRFTIDAFRRHCMMNGLDSIGLTLQHDDAIAAYEAKQPAFMN
notes: as for B1
Km [9]: 3900 ± 700 µM | kcat [9]: 0.151 ± 0.0231 s⁻¹ | kcat/Km [9]: 40.3 ± 9.44 M⁻¹ s⁻¹ | Km [10]: 3350 ± 750 µM | kcat [10]: 0.0872 ± 0.0153 s⁻¹ | kcat/Km [10]: 27.2 ± 7.78 M⁻¹ s⁻¹

B6: E. coli isopropylmalate isomerase LeuCD complex, Variant 5 (wt LeuC + L31A-LeuD; parents SEQ ID NO: 1 and SEQ ID NO: 2) (Escherichia coli K-12; L31A) (protein)
chain 1: MGSSHHHHHHSSGMAKTLYEKLFDAHVVYEAENETPLLYIDRHLVHEVTSPQAFDGLRAHGRPVRQPGKTFATMDHNVSTQTKDINACGEMARIQMQELIKNCKEFGVELYDLNHPYQGIVHVMGPEQGVTLPGMTIVCGDSHTATHGAFGALAFGIGTSEVEHVLATQTLKQGRAKTMKIEVQGKAAPGITAKDIVLAIIGKTGSAGGTGHVVEFCGEAIRDLSMEGRMTLCNMAIEMGAKAGLVAPDETTFNYVKGRLHAPKGKDFDDAVAYWKTLQTDEGATFDTVVTLQAEEISPQVTWGTNPGQVISVNDNIPDPASFADPVERASAEKALAYMGLKPGIPLTEVAIDKVFIGSCTNSRIEDLRAAAEIAKGRKVAPGVQALVVPGSGPVKAQAEAEGLDKIFIEAGFEWRLPGCSMCLAMNNDRLNPGERCASTSNRNFEGRQGRGGRTHLVSPAMAAAAAVTGHFADIRNIK
chain 2: MAEKFIKHTGLVVPLDAANVDTDAIIPKQFAQKVTRTGFGAHLFNDWRFLDEKGQQPNPDFVLNFPQYQGASILLARENFGCGSSREHAPWALTDYGFKVVIAPSFADIFYGNSFNNQLLPVKLSDAEVDELFALVKANPGIHFDVDLEAQEVKAGEKTYRFTIDAFRRHCMMNGLDSIGLTLQHDDAIAAYEAKQPAFMN
notes: as for B1
Km [11]: 1310 ± 140 µM | kcat [11]: 0.3889 ± 0.0214 s⁻¹ | kcat/Km [11]: 299.2 ± 35.8 M⁻¹ s⁻¹ | Km [12]: 1400 ± 600 µM | kcat [12]: 0.00972 ± 0.0014 s⁻¹ | kcat/Km [12]: 8.06 ± 3.61 M⁻¹ s⁻¹
